Assay results reported in publication doi:10.1101/2021.10.26.465098.

Target: HAdV-C5, -D26 and -B35
Assay: SPR

Substance: human neutrophil protein 1 (HNP-1) (from UniProt P59665 65-94) (peptide)
- Kd: 37 to 76 nM
